According to patent US20230250154A1 (CYTONICS, published 2023):

T1: Cathepsin G (UniProt P08311 21-244)
T1 sequence (looked up): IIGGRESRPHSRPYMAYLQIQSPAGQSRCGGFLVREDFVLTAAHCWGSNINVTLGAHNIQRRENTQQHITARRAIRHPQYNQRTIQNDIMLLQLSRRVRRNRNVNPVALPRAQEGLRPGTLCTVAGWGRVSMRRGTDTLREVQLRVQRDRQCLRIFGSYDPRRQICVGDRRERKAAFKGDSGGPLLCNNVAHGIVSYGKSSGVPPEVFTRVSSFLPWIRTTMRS

T2: MMP1 (human, UniProt P03956 100-469, limits assumed)
T2 sequence (looked up): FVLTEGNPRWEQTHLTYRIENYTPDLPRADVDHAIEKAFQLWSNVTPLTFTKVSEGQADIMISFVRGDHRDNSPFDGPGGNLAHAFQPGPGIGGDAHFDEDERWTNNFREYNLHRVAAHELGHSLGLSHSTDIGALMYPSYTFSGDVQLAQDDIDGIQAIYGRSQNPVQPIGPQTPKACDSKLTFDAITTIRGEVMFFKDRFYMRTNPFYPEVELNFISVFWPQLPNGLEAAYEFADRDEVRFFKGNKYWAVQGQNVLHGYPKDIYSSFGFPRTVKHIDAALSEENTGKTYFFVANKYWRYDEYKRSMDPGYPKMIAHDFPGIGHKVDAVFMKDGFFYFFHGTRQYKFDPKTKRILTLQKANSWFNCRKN

B1: Variant A2M, bait region SEQ ID NO 133 (other)
chain: SVSGKPQYMVLVPSLLHTETTEKGCVLLSYLNETVTVSASLESVRGNRSLFTDLEAENDVLHCVAFAVPKSSSNEEVMFLTVQVKGPTQEFKKRTTVMVKNEDSLVFVQTDKSIYKPGQTVKFRVVSMDENFHPLNELIPLVYIQDPKGNRIAQWQSFQLEGGLKQFSFPLSSEPFQGSYKVVVQKKSGGRTEHPFTVEEFVLPKFEVQVTVPKIITILEEEMNVSVCGLYTYGKPVPGHVTVSICRKYSDASDCHGEDSQAFCEKFSGQLNSHGCFYQQVKTKVFQLKRKEYEMKLHTEAQIQEEGTVVELTGRQSSEITRTITKLSFVKVDSHFRQGIPFFGQVRLVDGKGVPIPNKVIFIRGNEANYYSNATTDEHGLVQFSINTTNVMGTSLTVRVNYKDRSPCYGYQWVSEEHEEAHHTAYLVFSPSKSFVHLEPMSHELPCGHTQTVQAHYILNGGTLLGLKKLSFYYLIMAKGGIVRTGTHGLLVKQEDMKGHFSISIPVKSDIAPVARLLIYAVLPTGDVIGDSAKYDVENCLANKVDLSFSPSQSLPASHAHLRVTAAPQSVCALRAVDQSVLLMKPDAELSASSVYNLLPEKDLTGFPGPLNDQDDEDCINRHNVYINGITYTPVSSTNEKDMYSFLEDMGLKAFTNSKIRKPKMCPQLEQYEMHGPIPENFFGVEGEGEGESELEGRGSSEDLVVQIVEEPHTKLRKYFPETWIWDLVVVNSAGVAEVGVTVPDTITEWKAGAFCLSEDAGLGISSTASLRAFQPFFVELTMPYSVIRGEAFTLKATVLNYLPKCIRVSVQLEASPAFLAVPVEKEQAPHCICANGRQTVSWAVTPKSLGNVNFTVSAEALESQELCGTEVPSVPEHGRKDTVIKPLLVEPEGLEKETTFNSLLCPSGGEVSEELSLKLPPNVVEESARASVSVLGDILGSAMQNTQNLLQMPYGCGEQNMVLFAPNIYVLDYLNETQQLTPEIKSKAIGYLNTGYQRQLNYKHYDGSYSTFGERYGRNQGNTWLTAFVLKTFAQARAYIFIDEAHITQALIWLSQRQKDNGCFRSSGSLLNNAIKGGVEDEVTLSAYITIALLEIPLTVTHPVVRNALFCLESAWKTAQEGDHGSHVYTKALLAYAFALAGNQDKRKEVLKSLNEEAVKKDNSVHWERPQKPKAPVGHFYEPQAPSAEVEMTSYVLLAYLTAQPAPTSEDLTSATNIVKWITKQQNAQGGFSSTQDTVVALHALSKYGAATFTRTGKAAQVTIQSSGTFSSKFQVDNNNRLLLQQVSLPELPGEYSMKVTGEGCVYLQTSLKYNILPEKEEFPFALGVQTLPQTCDEPKAHTSFQISLSVSYTGSRSASNMAIVDVKMVSGFIPLKPTVKMLERSNHVSRTEVSSNHVLIYLDKVSNQTLSLFFTVLQDVPVRDLKPAIVKVYDYYETDEFAIAEYNAPCSKDLGNADYKDDDDKGASHHHHHH
B2: Variant A2M, bait region SEQ ID NO 135 (other)
chain: SVSGKPQYMVLVPSLLHTETTEKGCVLLSYLNETVTVSASLESVRGNRSLFTDLEAENDVLHCVAFAVPKSSSNEEVMFLTVQVKGPTQEFKKRTTVMVKNEDSLVFVQTDKSIYKPGQTVKFRVVSMDENFHPLNELIPLVYIQDPKGNRIAQWQSFQLEGGLKQFSFPLSSEPFQGSYKVVVQKKSGGRTEHPFTVEEFVLPKFEVQVTVPKIITILEEEMNVSVCGLYTYGKPVPGHVTVSICRKYSDASDCHGEDSQAFCEKFSGQLNSHGCFYQQVKTKVFQLKRKEYEMKLHTEAQIQEEGTVVELTGRQSSEITRTITKLSFVKVDSHFRQGIPFFGQVRLVDGKGVPIPNKVIFIRGNEANYYSNATTDEHGLVQFSINTTNVMGTSLTVRVNYKDRSPCYGYQWVSEEHEEAHHTAYLVFSPSKSFVHLEPMSHELPCGHTQTVQAHYILNGGTLLGLKKLSFYYLIMAKGGIVRTGTHGLLVKQEDMKGHFSISIPVKSDIAPVARLLIYAVLPTGDVIGDSAKYDVENCLANKVDLSFSPSQSLPASHAHLRVTAAPQSVCALRAVDQSVLLMKPDAELSASSVYNLLPEKDLTGFPGPLNDQDDEDCINRHNVYINGITYTPVSSTNEKDMYSFLEDMGLKAFTNSKIRKPKMCPQLEQYEMHGPIPENFFGVSELEGRGSSEDLVVQIKEEEGLGSVEEPHTKLRKYFPETWIWDLVVVNSAGVAEVGVTVPDTITEWKAGAFCLSEDAGLGISSTASLRAFQPFFVELTMPYSVIRGEAFTLKATVLNYLPKCIRVSVQLEASPAFLAVPVEKEQAPHCICANGRQTVSWAVTPKSLGNVNFTVSAEALESQELCGTEVPSVPEHGRKDTVIKPLLVEPEGLEKETTFNSLLCPSGGEVSEELSLKLPPNVVEESARASVSVLGDILGSAMQNTQNLLQMPYGCGEQNMVLFAPNIYVLDYLNETQQLTPEIKSKAIGYLNTGYQRQLNYKHYDGSYSTFGERYGRNQGNTWLTAFVLKTFAQARAYIFIDEAHITQALIWLSQRQKDNGCFRSSGSLLNNAIKGGVEDEVTLSAYITIALLEIPLTVTHPVVRNALFCLESAWKTAQEGDHGSHVYTKALLAYAFALAGNQDKRKEVLKSLNEEAVKKDNSVHWERPQKPKAPVGHFYEPQAPSAEVEMTSYVLLAYLTAQPAPTSEDLTSATNIVKWITKQQNAQGGFSSTQDTVVALHALSKYGAATFTRTGKAAQVTIQSSGTFSSKFQVDNNNRLLLQQVSLPELPGEYSMKVTGEGCVYLQTSLKYNILPEKEEFPFALGVQTLPQTCDEPKAHTSFQISLSVSYTGSRSASNMAIVDVKMVSGFIPLKPTVKMLERSNHVSRTEVSSNHVLIYLDKVSNQTLSLFFTVLQDVPVRDLKPAIVKVYDYYETDEFAIAEYNAPCSKDLGNADYKDDDDKGASHHHHHH
B3: Variant A2M, bait region SEQ ID NO 131 (other)
chain: SVSGKPQYMVLVPSLLHTETTEKGCVLLSYLNETVTVSASLESVRGNRSLFTDLEAENDVLHCVAFAVPKSSSNEEVMFLTVQVKGPTQEFKKRTTVMVKNEDSLVFVQTDKSIYKPGQTVKFRVVSMDENFHPLNELIPLVYIQDPKGNRIAQWQSFQLEGGLKQFSFPLSSEPFQGSYKVVVQKKSGGRTEHPFTVEEFVLPKFEVQVTVPKIITILEEEMNVSVCGLYTYGKPVPGHVTVSICRKYSDASDCHGEDSQAFCEKFSGQLNSHGCFYQQVKTKVFQLKRKEYEMKLHTEAQIQEEGTVVELTGRQSSEITRTITKLSFVKVDSHFRQGIPFFGQVRLVDGKGVPIPNKVIFIRGNEANYYSNATTDEHGLVQFSINTTNVMGTSLTVRVNYKDRSPCYGYQWVSEEHEEAHHTAYLVFSPSKSFVHLEPMSHELPCGHTQTVQAHYILNGGTLLGLKKLSFYYLIMAKGGIVRTGTHGLLVKQEDMKGHFSISIPVKSDIAPVARLLIYAVLPTGDVIGDSAKYDVENCLANKVDLSFSPSQSLPASHAHLRVTAAPQSVCALRAVDQSVLLMKPDAELSASSVYNLLPEKDLTGFPGPLNDQDDEDCINRHNVYINGITYTPVSSTNEKDMYSFLEDMGLKAFTNSKIRKPKMCPQLEQYEMHGPEGEGEGEGISEDLVVQIPENFFGVKEEEGLGSVEEPHTKLRKYFPETWIWDLVVVNSAGVAEVGVTVPDTITEWKAGAFCLSEDAGLGISSTASLRAFQPFFVELTMPYSVIRGEAFTLKATVLNYLPKCIRVSVQLEASPAFLAVPVEKEQAPHCICANGRQTVSWAVTPKSLGNVNFTVSAEALESQELCGTEVPSVPEHGRKDTVIKPLLVEPEGLEKETTFNSLLCPSGGEVSEELSLKLPPNVVEESARASVSVLGDILGSAMQNTQNLLQMPYGCGEQNMVLFAPNIYVLDYLNETQQLTPEIKSKAIGYLNTGYQRQLNYKHYDGSYSTFGERYGRNQGNTWLTAFVLKTFAQARAYIFIDEAHITQALIWLSQRQKDNGCFRSSGSLLNNAIKGGVEDEVTLSAYITIALLEIPLTVTHPVVRNALFCLESAWKTAQEGDHGSHVYTKALLAYAFALAGNQDKRKEVLKSLNEEAVKKDNSVHWERPQKPKAPVGHFYEPQAPSAEVEMTSYVLLAYLTAQPAPTSEDLTSATNIVKWITKQQNAQGGFSSTQDTVVALHALSKYGAATFTRTGKAAQVTIQSSGTFSSKFQVDNNNRLLLQQVSLPELPGEYSMKVTGEGCVYLQTSLKYNILPEKEEFPFALGVQTLPQTCDEPKAHTSFQISLSVSYTGSRSASNMAIVDVKMVSGFIPLKPTVKMLERSNHVSRTEVSSNHVLIYLDKVSNQTLSLFFTVLQDVPVRDLKPAIVKVYDYYETDEFAIAEYNAPCSKDLGNADYKDDDDKGASHHHHHH

molecular target: Elastase; test: cell-based or functional assay

Q: How did the “Protease Inhibition (% of WT)” value turn out when B1 was run?
A: The value was 350 % of WT.

Q: For B2, which “Protease Inhibition (% of WT)” value is on record?
A: The value was 300 % of WT.

Q: Which “Protease Inhibition (% of WT)” value does the source give for B3 here?
A: Its value is 300 % of WT.

molecular target: T1, Cathepsin G; test: cell-based or functional assay

Q: Which “Protease Inhibition (% of WT)” value does the source give for B1 here?
A: The value was 100 % of WT.

Q: B2 was tested. Which “Protease Inhibition (% of WT)” value did it give?
A: Its value is 100 % of WT.

Q: B3 was tested. Which “Protease Inhibition (% of WT)” value did it give?
A: Its value is 200 % of WT.

molecular target: T2, MMP1; test: cell-based or functional assay

Q: B1 was tested. Which “Protease Inhibition (% of WT)” value did it give?
A: Its value is 250 % of WT.

Q: B2 was tested. Which “Protease Inhibition (% of WT)” value did it give?
A: The value was 300 % of WT.

Q: How did the “Protease Inhibition (% of WT)” value turn out when B3 was run?
A: Its value is 300 % of WT.
